{"source": "the supplement of paper PMC9732359", "note": "± gives the uncertainty stated by the source.", "data": [{"test": "protein stability index of a GFP-peptide fusion (yeast GPS) (PSI 1-4); higher = more stable; sorted into four equal gates, so the index is relative within each strain", "details": "pdr5∆", "in_short": "(§1)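 Mid-log yeast cultures in leucine-free medium, carrying a pooled plasmid library, were sorted into four equal gates by their GFP/Cherry fluorescence ratio. Each plasmid expressed Cherry along with GFP fused upstream of a tiled 17-residue yeast protein peptide. Plasmids recovered from each gate were PCR-amplified and Illumina-sequenced, with reads assigned to strains by barcodes. The protein stability index was obtained by summing each gate's read frequency weighted by its gate number.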", "values": [{"sequence": "NPNNVNVQTQYREAPVI [RET1]", "protein stability index": "2.73 ± 0.045"}]}, {"test": "protein stability index of a GFP-peptide fusion (yeast GPS) (PSI 1-4); higher = more stable; sorted into four equal gates, so the index is relative within each strain", "details": "san1∆", "in_short": "as §1", "values": [{"sequence": "MYQEWEDETVKVAQLRQ [NSL1]", "protein stability index": "3.372 ± 0.032"}, {"sequence": "NADFQKPWFATVNGQAR [FAS1]", "protein stability index": "2.45 ± 0.082"}, {"sequence": "NAEKYFNNGDDDDYGDE [RPC31]", "protein stability index": "3.07 ± 0.066"}, {"sequence": "NAQLSCITKQDGFKIYD [PUP2]", "protein stability index": "3.12 ± 0.098"}, {"sequence": "NATLTPNDSNDEKVTIL [SWI1]", "protein stability index": "3.1 ± 0.066"}, {"sequence": "NDFFIIYYTPAFFHLFA [YJL039C/NUP192]", "protein stability index": "1.62 ± 0.073"}, {"sequence": "NDILVLMESEREARRLR [RPS28A]", "protein stability index": "2.08 ± 0.16"}, {"sequence": "NDIPLGSGQPDNDTVVT [SRB8]", "protein stability index": "2.51 ± 0.14"}, {"sequence": "NDKQGFPMKQGVLLPTR [RPS6A]", "protein stability index": "2.79 ± 0.075"}, {"sequence": "NDLDEDDIYDISLLKNR [RPN4]", "protein stability index": "3.23 ± 0.14"}, {"sequence": "NDNDITVKENESDSKLQ [UBP6]", "protein stability index": "3.15 ± 0.071"}, {"sequence": "NDNENIVNNDLPTTVVS [MED2]", "protein stability index": "2.63 ± 0.042"}, {"sequence": "NDSENNSSEEDKKKGQN [ITC1]", "protein stability index": "2.68 ± 0.12"}, {"sequence": "NDVQGIDDVQTIKVVKR [RPP1]", "protein stability index": "2.69 ± 0.053"}, {"sequence": "NDWKLETERLISQSQLG [SIN4]", "protein stability index": "3.3 ± 0.068"}, {"sequence": "NECIEERVPKTQLDKLR [SMB1]", "protein stability index": "3.136 ± 0.03"}, {"sequence": "NECVCTPYNADFDGDEM [RPO31]", "protein stability index": "3.06 ± 0.049"}, {"sequence": "NEGAASSNPQSAYVKAF [SMC1]", "protein stability index": "2.5 ± 0.032"}, {"sequence": "NEIESRQLTSLGSKKEL [SNU114]", "protein stability index": "3.31 ± 0.092"}, {"sequence": "NELLDLTESQTETYISD [RPN5]", "protein stability index": "3.12 ± 0.046"}, {"sequence": "NEVSLAIKKSSMKMELL [SMC2]", "protein stability index": "3.34 ± 0.12"}, {"sequence": "NEYVIKTPVFTTGGDYI [YMR129W/POM152]", "protein stability index": "1.91 ± 0.075"}, {"sequence": "NEYYPMCEQALSALFTI [YCS4]", "protein stability index": "2.47 ± 0.077"}, {"sequence": "NFADKYDEVKKHWGGGI [RPL8A]", "protein stability index": "2.97 ± 0.099"}, {"sequence": "NFEAALFAKSSSKKEYM [GAL11]", "protein stability index": "2.17 ± 0.1"}, {"sequence": "NFENDNENNSNGGEDTS [REC8]", "protein stability index": "2.65 ± 0.16"}, {"sequence": "NFFQAPQDYVLERVKRI [YML031W/NDC1]", "protein stability index": "2.9 ± 0.068"}, {"sequence": "NFGFGIDEHIDLGIKYD [RPL11A]", "protein stability index": "2.39 ± 0.11"}, {"sequence": "NFLDAPGHVNFMDETAV [SNU114]", "protein stability index": "3.29 ± 0.068"}, {"sequence": "NFLRLPASNILRRTTQR [YDL116W/NUP84]", "protein stability index": "3.25 ± 0.13"}, {"sequence": "NFQDLSYLSETLISRIS [YML103C/NUP188]", "protein stability index": "2.04 ± 0.093"}, {"sequence": "NFQISKKMDDYIHRIGR [PRP28]", "protein stability index": "3.21 ± 0.13"}, {"sequence": "NFSGLNGGITNTATNAL [YOR098C/NUP1]", "protein stability index": "2.84 ± 0.084"}, {"sequence": "NGFMHAGTTDNSFIKAN [RPN2]", "protein stability index": "1.35 ± 0.082"}, {"sequence": "NGFSFTKFNHNKEKSNS [YOR098C/NUP1]", "protein stability index": "2.77 ± 0.039"}, {"sequence": "NGGITNTATNALRPSDI [YOR098C/NUP1]", "protein stability index": "2.11 ± 0.12"}, {"sequence": "NGGNSVITLAEYEKRNH [SRP68]", "protein stability index": "3.44 ± 0.1"}, {"sequence": "NGIIMNGTLIGCVSYSP [YMR153W/NUP53]", "protein stability index": "2.46 ± 0.21"}, {"sequence": "NGIVDQVLVTTNQDGLK [RPB2]", "protein stability index": "2.61 ± 0.088"}, {"sequence": "NHFKDTYGFSILDIVIN [FAS1]", "protein stability index": "3.33 ± 0.091"}, {"sequence": "NHKSKDNNNGDDDDEDD [SKP1]", "protein stability index": "3.16 ± 0.05"}, {"sequence": "NIAQMIPGMSNMMNQVG [SRP54]", "protein stability index": "2.67 ± 0.06"}, {"sequence": "NIETGENHNGQSISNEN [SWI3]", "protein stability index": "3.06 ± 0.12"}, {"sequence": "NIGQQQVKKPRKQRVKK [SWI1]", "protein stability index": "3.42 ± 0.084"}, {"sequence": "NIIEKAMDYAISIENIV [RPN12]", "protein stability index": "2.96 ± 0.094"}, {"sequence": "NIKHKHTSIRETLENGE [SMC2]", "protein stability index": "1.54 ± 0.2"}, {"sequence": "NILKILSSLILKIFQEQ [SRB8]", "protein stability index": "2.48 ± 0.1"}, {"sequence": "NINNNINSTKNGKDNNN [MED2]", "protein stability index": "3.24 ± 0.045"}, {"sequence": "NIQKKQPAKEKGVTEKD [RRP6]", "protein stability index": "3.11 ± 0.051"}, {"sequence": "NISFYKLHVNWNLNATK [SIN4]", "protein stability index": "2.18 ± 0.16"}, {"sequence": "NITDNLFQELSKVVDDM [GRR1]", "protein stability index": "2.28 ± 0.07"}, {"sequence": "NIVMDSKQNGIEQSITK [SSN8]", "protein stability index": "2.61 ± 0.18"}, {"sequence": "NIWLNNKIINWEISNPD [NUT1]", "protein stability index": "2.71 ± 0.11"}, {"sequence": "NKKDKKKEEEEQLSEED [RPN1]", "protein stability index": "3.28 ± 0.13"}, {"sequence": "NKKRPSSKKVFSSNLSY [YOR098C/NUP1]", "protein stability index": "2.08 ± 0.1"}, {"sequence": "NKNIDIGLLNKSKSSLD [RPN2]", "protein stability index": "1.76 ± 0.096"}, {"sequence": "NKNNNNRHNLLNDVVSF [SWI1]", "protein stability index": "1.99 ± 0.037"}, {"sequence": "NKNQDAFEAELSNIPLL [ARP9]", "protein stability index": "3.01 ± 0.084"}, {"sequence": "NKPIKRMLSSILDINVS [SWP82]", "protein stability index": "2.48 ± 0.053"}, {"sequence": "NKRLCDEIATIQSKRLR [RPS17A]", "protein stability index": "3.1 ± 0.046"}, {"sequence": "NKRLDVIDGKLPFMQNA [YDL088C/ASM4]", "protein stability index": "2.44 ± 0.052"}, {"sequence": "NKSLKYVIHGIELLSDL [LIN1]", "protein stability index": "2.92 ± 0.075"}, {"sequence": "NKSSVRPTGGANMATVP [MED6]", "protein stability index": "2.71 ± 0.1"}, {"sequence": "NLANEQPVLEKPLKKGS [SIR4]", "protein stability index": "3.08 ± 0.13"}, {"sequence": "NLDIAKDLIRTDEALFE [MED4]", "protein stability index": "2.46 ± 0.28"}, {"sequence": "NLKFLKNKDSLVSNPHE [SRB4]", "protein stability index": "2.49 ± 0.05"}, {"sequence": "NLLKNFISSNDAFNMLS [SNF6]", "protein stability index": "1.97 ± 0.13"}, {"sequence": "NLPGNITVVLGVNGYIW [RRP4]", "protein stability index": "1.67 ± 0.12"}, {"sequence": "NLPKEGDIVLTRVTRLS [CSL4]", "protein stability index": "2.48 ± 0.26"}, {"sequence": "NLQKIDKDSEELDSKTR [MED4]", "protein stability index": "2.94 ± 0.078"}, {"sequence": "NLQPASVINNYLREDQM [NUT1]", "protein stability index": "2.82 ± 0.094"}, {"sequence": "NLQQQQQQQIQVPLQQT [YGR119C/NUP57]", "protein stability index": "2.16 ± 0.18"}, {"sequence": "NLTEFVQMDKIRKIVRK [AAR2]", "protein stability index": "1.9 ± 0.13"}, {"sequence": "NLTSEIEDLRADINSNR [YOR098C/NUP1]", "protein stability index": "2.83 ± 0.12"}, {"sequence": "NLTYSSGLFVDVKKRTY [RPB2]", "protein stability index": "2.4 ± 0.071"}, {"sequence": "NLVVSGPPQSLYGLNLT [FAS1]", "protein stability index": "2.51 ± 0.075"}, {"sequence": "NLYDGAEHKYMPYTINE [BRR2]", "protein stability index": "3.13 ± 0.048"}, {"sequence": "NLYTPKAEMPPEHLRKI [PRP8]", "protein stability index": "2.78 ± 0.073"}, {"sequence": "NMVLENVKELWTEKKGK [SMD2]", "protein stability index": "2.47 ± 0.14"}, {"sequence": "NNDDNGNNNNNNSGNDN [MED2]", "protein stability index": "3.01 ± 0.034"}, {"sequence": "NNGLPECQVIAAEGLCK [YCG1]", "protein stability index": "1.65 ± 0.15"}, {"sequence": "NNGVSNLWKNIFLSKEN [COR1]", "protein stability index": "2.67 ± 0.089"}, {"sequence": "NNLEKYPFRYKTWLRNQ [RTT102]", "protein stability index": "3.32 ± 0.061"}, {"sequence": "NNLHELWALLNFLLPDI [ISW2]", "protein stability index": "1.89 ± 0.07"}, {"sequence": "NNLSSMNLDFDIEEGPI [MCD1]", "protein stability index": "3.21 ± 0.037"}, {"sequence": "NNNSNNIMSASGGLFGN [YGL172W/NUP49]", "protein stability index": "3.13 ± 0.051"}, {"sequence": "NNNVTAVPAATPANTNN [SWI1]", "protein stability index": "2.76 ± 0.032"}, {"sequence": "NNPPKPQKPVPLNVLQD [SNF2]", "protein stability index": "3.21 ± 0.045"}, {"sequence": "NNRISNANEISANTNNT [SWP82]", "protein stability index": "2.54 ± 0.066"}, {"sequence": "NNRRRSRKRGGENVFLK [SIR3]", "protein stability index": "3.07 ± 0.086"}, {"sequence": "NNSANNNAHSSDLGTVV [YMR153W/NUP53]", "protein stability index": "2.7 ± 0.091"}, {"sequence": "NNSDDEDVDDEELDITP [IRR1]", "protein stability index": "3.58 ± 0.083"}, {"sequence": "NNSKSRYPMNLLEFIID [ECM29]", "protein stability index": "2.64 ± 0.075"}, {"sequence": "NNSSITLRCSVVEACGN [YCS4]", "protein stability index": "1.13 ± 0.14"}, {"sequence": "NNVSFNAKDIQIPVYDT [FAS1]", "protein stability index": "2.18 ± 0.048"}, {"sequence": "NNYNSRIQLMNDFTTKL [MED1]", "protein stability index": "2.98 ± 0.058"}, {"sequence": "NPHQDLQAQDRAHRIGQ [SNF2]", "protein stability index": "2.9 ± 0.07"}, {"sequence": "NPIANHTVTNSPNPTLQ [SNF5]", "protein stability index": "2.65 ± 0.038"}, {"sequence": "NPIDIKRRFGELMDRTG [RPP1]", "protein stability index": "2.26 ± 0.26"}, {"sequence": "NPLKNKQVLLRLNPYAK [RPL4A]", "protein stability index": "1.15 ± 0.15"}, {"sequence": "NPLWNAIIVAGVQSNGD [PRE4]", "protein stability index": "1.53 ± 0.075"}, {"sequence": "NPNNVNVQTQYREAPVI [RET1]", "protein stability index": "2.48 ± 0.1"}, {"sequence": "NPPSYQSSEDVITIKSR [RPB7]", "protein stability index": "2.6 ± 0.12"}]}]}
